We go through one molecule from PMC2785583 (The Journal of Biological Chemistry, 2009).

In general, Kd refers to the free concentration of one partner at which half of the binding sites on the other are occupied at equilibrium, for simple one-to-one binding.

Data set [1] has as its target Protein FAF (F. magna adhesion factor), recombinant, amino acids 28-616 (Finegoldia magna). Description: SPR.
The data set “SDS-PAGE” deals with the molecule itself. Description: SDS-PAGE.

B1: Recombinant human MIG/CXCL9 (monokine induced by gamma-interferon) (ligand, UniProt Q07325 23-125, looked up)
chain: TPVVRKGRCSCISTNQGTIHLQSLKDLKQFAPSPSCEKIEIIATLKNGVQTCLNPDSADVKELIKKWEKQVSQKKKQKNGKKHQKKKVLKVRKSQRSRQKKTT
As for B1, in data set [1], the Kd stood at 4.9 nM. In “SDS-PAGE”, the binding result is given as “binds”.
